Measurements taken from the domain aggregation screens of Martell et al. (2025).

Experiment: soluble fraction after stress (log2 fold change); higher = more stays soluble; pooled small domains, quantitative proteomics
Conditions: stress: 75 degC
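Also: 20 min heating vs room temperature control held 20 min.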

| Sequence | soluble fraction (log2) |
| --- | --- |
| HMITASNYFIEVERIGIETLPETLKKGHDLVVKSTSNGTNWANYQTSEGIKKVIDLYFQKLNEYANTV | -1.83 |
| HMLLGDYIQKLRNQRGLSQQEFADKLGIGRSTLANYEQNKRSPDYETLIEISKFFNVSIDELLGV | -1.05 |
| HMTLTEQQITDNYKELRKIINDTFSGLRLDKLNHMYDDLEDRMVVAPASSVEHYHNSKVGGYVEHILHVI | -0.124 |
| HMLAIKKGGIFAILGPNGSGKSTFSKVLAGHPAYTVVDGDIFFKGLSILDLEPEERSHLGIFLAFQ | -0.286 |
| HMTYFIADLIGLQVYTDSGELLGKVDDIYNSGSADIYVVKDELGKQILLPGIKDVIKQIDVDNEKIIVHLI | -1.24 |
| HMERPKSLRELALEHLRNSIIDGSLKMGQVLSERKISEELGVSKSPVREALAQLRDEGLVSIEPQKGARV | 0.14 |
| HMNILNYIIENENQEVRVDKFLSDTIEDMSRSSVASIIEDGGLLVNDKLQNKKYKLKIGDKVQFTVPDPV | 0.0982 |
| HMTWDSFIGYTVTDVQKGYLGEITDVDETTINVLLRVDHKGEELLIPAVEELITEADHEARSLTVSLPEGL | -0.398 |
| HMKSVFQPIYEDLLSRIQDGRLLPGMPLPSENALAVQYGTSRPTIRRAIGLLVEKSLVIRQPGIGSIVAS | -1.32 |
| HMPAMYKAERMNQILSILADQGDVDVGTLARQFGVSLVTIRKDLTYLESSGQLVRTHGGAIAVA | -0.707 |
| HMGMMTLGQRIAQYRKAMGISQEELGGRLGVSRQAVSKWETDAAAPDMENLLALAREFGVSVAELTETP | -0.187 |
| HMKISQSRKAGKLVLESELKRGGVSLDQYRGGRMSRILELIGVKSLNELLTDLGTGKKTGALVAERFFSGL | -0.618 |
| HMENWMPNLVNQDKRLAINTLRELGFTEEAGNLVIREETSEDVTKDYVISTDPVAETDLADVEKVTLVVSS | 0.116 |
| HMESKPLTPSEIKKLRMDANMTQAGLAEVLGMTVKAVEAWESGRNIPSGAADKILRVMQKHPSVIGMMQS | 0.0281 |
| HMHLTNIPKGFTPSFDTKQWIVEEFGERYNYDNELKIFINHYRASGTTKSDWQYAFRSWLLRAKKFT | -2.83 |
| HMDPVATLTPREREVLELMAEGRTNAGIAEAMVVTEGAVEKHIQRIFAKLGLHADGGVHRRVAAVLALLG | -1.38 |
| HMGGKTAVVTGSLVNVRKGPGTGNALVGQVARGDELPVLGQDGDWYQIKLANGSNGWVAGWLVSLKDAVP | 0.334 |
| HMGMTRPLFVTDPGLVRIGLVSPIFEKLGSGKLSPQLFDQVKEDPPEQTVFDGVEFARETGIDGVIGFG | 0.00642 |
| HMRSVLSDEIYLLIRKMIFNYEILPGAKVNIDALAKKLDVSQTPVREALSRLESDGLIVKEPLKGFRATD | -2.72 |
| HMRNSVQREWIYDYIQRQDAHLSADEIYEGLLKEGKNISLATVYRNLSILVDEYKIASVMTDSKKQVYDK | -2.56 |
| HMTSEVLTNATIVKMVKAKLSDDIIIDEINNARVNFDVSPEGIKSLTAQNVTEPVIETMKKAVAAQESI | 0.467 |
| HMNPYLWQRVRLLFSNVGVINNSATVDLVFSAPKGVLTEDLANNFSAALVKKGKEELGLDDIKITISVIPN | -3.67 |
| HMAYLTGFHAIEELIRAGKAKGPLLVANAGPRARTIMSLATDNKIRIDRLGEHELNRLAPGNRGIALYVE | -0.898 |
| HMSSLTPRETEVLSRMAQGDANTSIAERLVITEKAVQKHINAIFAKLGLAEEPTSARRVLAVLAFLR | -0.539 |
| HMRTGLSGMIGEIGIVKQAIDPEGKVAVHGELWKARADVALAAGQTVRVVAVDGLTMTVEATDSK | -0.661 |
| HMKKISAKQQQILDYISSYSLEHGYPPSVREIGAEMGLRSPSTVHAHLKKLQEAGYLEPNEHKSRALTP | -0.146 |

| Sequence | soluble fraction (log2) |
| --- | --- |
| HMSDRFVRIVMNDGTVKLGQMISEDADFIRLKTNNLGELNIPKYLVLDMMDLTRSEYVRLSISNAG | -0.282 |
| HMDMQNIQKGLSAIEPGRTFSREEYYAAIQNGSEMLLKEDALAYSLRKSLSDGDIVRVSWNQYAIP | -0.107 |
| HMPSEAVQNIIGNVKSKRRVATIGQARGLASNVIKEGKFDNVSNTAMVNRLIDLGIISNSIGYQ | -0.0616 |
| HMRKEEFIRELVLELKQNVSEQVILEQKRFYEEYILTEVRGGKTEEEVIASLSEPRLLAKSIIDAAEAGGD | -1.3 |
| HMQMSPREKMIYSFIESHPGTKSGEIAEKLNVPLPTVKRILSEMVSGNFIAKHGSGIGTNYSTEK | 0.335 |
| HMNEYLPEAVQKLLEVMEYDIPYTSNELMERLGLKAKEGFRRNYLHPAMEMKLIQMTIPDKPNSRNQRYLR | -2.13 |
| HMAKRDEIEAELPRFVATITQELAASRDVLSMIEHYKQNSGPVFSAELDVLTADMRSGSYEAALTRFEARF | 0.188 |
| HMEAFAEAVASMLRKLQPEFAIDLVGPRELLVNGRRLDLENLYRMVNHEPVRGQEIVEHYLDQLFAG | -1.17 |
| HMDTPMYMAIIEEVRFQIANEILKEGEQLPSIRNLAKTLKVSVITVKRAYKELEEAGYITTIPAKGSKVS | -1.16 |
| HMKTYSEAQLKIALESLIENGKKQGYLTFQEINEILPDGIINTQDLKVIISILKETGIVVAKEKPEINIDV | 0.0761 |
| HMRRQRNPEIFDQLVNKFHFTFTQTQQLKQLIKRWHMLFPGKSLKSAIQGYKSAKEILTYINDSLDVVE | 0.213 |
| HMNTLLGLSNSFQDNKDLENANSISRRFISYRPRSEAELRIRLLKVFSHEIVLESVAQMYREGLLNDQRF | -3.18 |
| HMATYNEVLKRLIEERKRLGLSQQEMARLVHITQSNYSKVEKGLHRLSYEELKYLSKANVDIFYILT | -0.0786 |
| HMKEVVKVTITPSEKLKSQYPDALVSIDGKFYDLGILNNPVEFYMDKDHKISIIWSTAELVESFRI | -0.000631 |
| HMSPLDSHLGRRIALRRQQLNTSAADLEKAISMVPGSVARFEAGRQSLNATQLFTLSRALDVPVLYFFEG | -0.705 |
| HMDRWSLLTLTTLAGGTLRFTELKRAIGDISQRMLAQTLRTLEREGYVSRKVYATIPPKVEYRLTALGQSL | -3.21 |
| HMSFMPDPSIHDAITYTVRSGDYLGKISTTFGVKVSDLQKWNSIKSNIIYPGQKLTVWVSSNKRESLQ | -1.71 |
| HMILEEIIGKNIARYREAAGLTQATLAEKIGISTAFVSRVERGQKKMKVETLYATAKVLNVSVDALLS | -2.61 |
| HMRRSDLVTQGDEILKRLQWNQQQAKDFLNQHLKASSRQQLTDEQLLNFNMLLEEQLVKSME | 0.426 |
| HMDGVPPAGSRIRLTVSTQVGDKEFEGTLVPPAGVDLLTLKLANGYNLSHSIADVREVVLIEEGLQGEEP | -0.191 |
| HMIKITLGWVISVRRHDLGYTQHKMARAVGISDLTVSRIESDDGITPDNNTLRKIAEYLKIDYNSLLTLK | -1.37 |
| HMKISDMIETNLKFLRGKHSISQAELAESLGIPRTTLSAYERGFVEPNIELMLKMAKYFNVSLDDLIAYN | -2.07 |
| HMDEDTWKLYKRAYKKYYARYMKGNMSEAAFKAWGEQAAADRDAAIEQLRATTDAALSASIIQQLKEKLNR | -0.995 |
| HMYFFNTFTQRLFDNPELTQEEAIRQMYPGISGVQTAEKLQENFMADVYIQAAIRQEIVVQLIR | -0.485 |
| HMTRAEVQALLEKQAKDFEVEVVHRGWKKTVQTPEFAGWYSQQPAEIKALAESDDPAVAIRMLDLFSGTK | -0.0943 |
| HMLDVGDQLVKKLKDNDSLDFHFVNSKEANKGLKDGDYYMVITIPSNFSKNATTLLDKNPKKMVLNYTTNP | -0.0273 |

| Sequence | soluble fraction (log2) |
| --- | --- |
| HMNSKSFIFHIEDEEGIRLDVFLADNLPDVSRSYVQKLIDEEHVKVNGQSAKSRLKTVSGMEITVDVPAPK | -0.56 |
| HMVNSIQIHKKLRLDKRAGSDNWYARLTLPNGKRLVKTTKTEDIETAKEVALRLYYEVDARIQNKLPAT | -1.72 |
| HMGQERAVPDVKGQSFDMAQGNISRAGLKAVVTDSVYDSYARPGTVVEQSPIPLAKIKRGGTVYLTLVA | -0.118 |
| HMLNSISIKTNKKIDFLEKNEHLVNFVYEKETMEHIYNLSYENKKDLQELQNKLSDIEGIIKINTDL | 0.651 |
| HMEDYYKILGVQSNSNPDDIKKAYRKLSLKHHPDRGGDASEFKKINEAYQTLGTPEKRKMYDMQQNN | -0.169 |
| HMERMTSTEILTRDFLTTNSKIVKKSTIEELSEIIHVSPATIIRTVKKMGYSGFSEYKNELINQ | -1.73 |
| HMQISDDGFILKIINEVVAENPKSISDYISGKEAAVGFLVGQIMKKTRGKANPKLVNEMLITELAKLKN | 0.0585 |
| HMTVDIADALRVLGLSDAPDWSDVRAAHRRAIVRTHPDAGGSAGDAARVNQAFDLLRKISGNGERPIPG | 0.012 |
| HMPNFDPSYILDFGDVIQLQLVGQKNQILEIPILRDGSVNLPDIGKIFLSGMSLEEATKIIKDTYSA | -0.931 |
| HMKVFTEDEMLEKIKEYLSTNSYINRRVMETQFGLRQNIALKWLKHFTEIGVLRKEGERNSPIYFLNN | -0.356 |
| HMQKLLGPFEDFVKIKLDKYPDTKAAQMHDWLKEHYPDFPEVTPKTVYNFVMYVRQRHNIPIPD | -0.359 |
| HMIINKFERRKEIQIQFNNQERIKFKDFFLNLSKENIIVSFLILLELVRESLIDFSGTNENDIEFFIK | -2.38 |
| HMKPVYNKVEIPRGGEYALVLSDGTKVHLNSMSSLRFPVAFTTGKREVELQGEAYFEVSKTGQPFIVNV | 0.219 |
| HMGSFAADVGRMVRLGRAKRGISRRKLAADSGISERYLAQIEGGQGNPSVNVLKAIADAISVPVFELLPH | -1.74 |
| HMEDADERRALEVLNQLLDLPEREQEAALAALSLPPALARRVRSLLSVQTRAADLFDTAPSP | 0.0142 |
| HMDGLPYPEAAEEPIAQVARNLGMDATRVSIALQEAKLIFRNLDETLAEIAANNGTTPQVVYDAIRHLEPP | -0.248 |
| HMKDYKTIFQELIQKKHKTSPIYKSYEYNDMFKAEVYVNDKSFADGIGKSKKEAETDAAKKALEKIEMA | -0.0428 |
| HMSVPSVAAVREQTGLSQVKFASLLGVSVRTLQEWEQGRRAPSGAARTLLMVAAKNPQALLEV | -1.31 |
| HMGVRLAPEVDRIPYGQMHPNLKKVKDLYEASYKAYVQALSSGNQALAKEKLEEFQSTKARYQRALSAYT | 0.305 |
| HMYRYGETPMVVVPDLIGRTVSDIYEEMNADFRLEKFGNGNTVISQAPKPGERVEQGSVIRVYLSGQDQ | 0.0556 |
| HMSGSGYAYVDKYGYSHVVKDYDTAKNYASDGNVYNYSGSHKGGYAYDADNYRVPLDLPGSKPYG | 0.191 |
| HMHSEISGGSKDPFRFMPHLGVEDIHAETDRLSGSGVEFIREPDQESWGGWVATFKDPDGNILQLLQL | 0.197 |
| HMDDIHTFVYETETPFDPQKLDRYIGSLTAVYGQDMLRYKGILYFAGVDRRVVFQGVHMLAV | -0.0939 |
| HMGASTQLVEIKNAYENGEWQNVIDLAGKLHEKYNGSEEDKEAQEMAKNSQSKLDEAAAAKAAEEA | 0.0816 |
